Results published in article PMC10899662, “TopBP1 utilises a bipartite GINS binding mode to support genome replication” (Nature Communications, 2024).

Target: GINS (HIS-(3C)-Sld5, Psf1, Psf2, Psf3) for structural and fluorescence polarisation studies, Q9BRT9;Q14691;Q9Y248;Q9BRX5
Experiment: fluorescence polarisation
Conditions: point at the highest concentration, 150 µM; parent: est. 180; read off a plot

fluorescently labelled GINI-core peptide (Ala478-Gly497), WT L490P; L491P
response: 3 mP
